The values below come from article PMC3020742 (The Journal of Biological Chemistry, 2010).

Where only a bound is given, the exact number is not on record here.

The data set “SEC” deals with the molecule itself. Kind of data set: SEC.
Data set [1] deals with MyD88 R98C DD-ID (residues 1-156), Protein A-tagged (LUMIER) (human, UniProt Q99836 1-156, R98C). Kind of data set: LUMIER.
Data set [2] addresses MyD88 S34Y DD-ID (residues 1-156), Protein A-tagged (LUMIER) (human, UniProt Q99836 1-156, S34Y). Kind of data set: LUMIER.

Chain of MyD88 R98C DD-ID (residues 1-156), Protein A-tagged (LUMIER) (Q99836 1-156 R98C): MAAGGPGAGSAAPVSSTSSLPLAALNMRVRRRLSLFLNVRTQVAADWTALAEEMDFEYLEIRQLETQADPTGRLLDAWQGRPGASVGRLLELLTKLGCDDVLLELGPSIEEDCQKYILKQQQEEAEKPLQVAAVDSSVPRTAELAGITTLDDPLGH
Chain of MyD88 S34Y DD-ID (residues 1-156), Protein A-tagged (LUMIER) (Q99836 1-156 S34Y): as the sequence (Q99836 1-156 R98C) above, with S34Y, C98R counted along it

B1: MyD88 R98C DD, purified from bacteria (domain or fragment)
chain: SLPLAALNMRVRRRLSLFLNVRTQVAADWTALAEEMDFEYLEIRQLETQADPTGRLLDAWQGRPGASVGRLLELLTKLGCDDVLLELGPSI
For the molecule B1, the “stoichiometry N” value in “SEC” was found to be 2.

B2: Renilla luciferase-tagged IRAK4 DD (residues 1-106) (domain or fragment)
chain: MNKPITPSTYVRCLNVGLIRKLSDFIDPQEGWKKLAVAIKKPSGDDRYNQFHIRRFEALLQTGKSPTSELLFDWGTTNCTVGDLVDLLIQNEFFAPASLLLPDAVP
Consider B2, for which the “fold reduction of binding against WT DD” value in data set [1] and in data set [2] was above 10 fold in each case.

The stoichiometry N is a count of units in the complex or per binding partner.
